From PMC8618983, “Investigation of the Transport Pathways Associated with Enhanced Brain Delivery of Peptide Drugs by Intranasal Coadministration with Penetratin” (Pharmaceutics, 2021)

Key:
[1] = set-up: species or system Sprague-Dawley rats; conditions: rat, in vivo
Description: We eluted the peptides with a 50 mM NaHCO3 solution and collected the eluted fractions containing the peptides. […] After adding 15 μL of trimethylamine to the Cy7-ester and peptide solution, we gently stirred the mixed solution overnight in the dark at room temperature. We desalted the resulting solution (1.94 mL) using a PD-10 column, eluted it with PBS (pH 7.4) with 0.001% methyl cellulose, and then adjusted its pH to 6.0. We obtained 4.0–6.0 mL of eluted solution and quantified the peptides by BCA assay or HPLC. We used the same analytical conditions for HPLC as previously described. […] We fed male Sprague-Dawley rats (seven weeks old) a nonfluorescent rodent diet (D10001) for a week before intranasal administration to avoid the intrinsic fluorescence of tissues. […] We performed the surgical procedure described by Hirai et al. to close the nasal cavity. Briefly, we incised the neck and cannulated the trachea and esophagus with polyethylene tubing (Hibiki No. 6) to maintain respiration and keep the solutions in the nasal cavity, respectively. We sealed the nasopalatine ducts with medical super glue (Aron Alpha A Sankyo, Daiichi-Sankyo Co., Ltd., Tokyo, Japan) to prevent the drainage of the solutions from the nasal cavity into the oral cavity. […] At the designated time points after administration (15, 30, and 60 or 120 min), we quickly exsanguinated the rats from the postcaval vein and flushed the administered solution by perfusion of PBS (pH 7.4). We decapitated the rats, carefully isolated the whole brain and right and left trigeminal nerves, and washed them with ice-cold PBS (pH 7.4). We placed the brain samples onto a brain matrix (MK-RC-01, Muromachi Kikai Co., Ltd., Tokyo, Japan) and sliced with blades (TCB-100) into twelve 2 mm-thick fractions. We placed the sliced brain and trigeminal nerve samples on a silicon board and mounted them on the stage of an in vivo imaging system (IVIS Lumina XR, Caliper Life sciences, Inc., Waltham, MA, USA). […] We quantified the fluorescence intensity of the region of interest of the images based on their contrast. To calculate the fluorescence intensity derived from Cy7 in the tissues, we subtracted the intrinsic fluorescence of an untreated area from the total intensity.

[2] = in vivo; cited from earlier work
Excerpt: During the permeation through the nasal mucosa, drugs come across microvascular vessels in the lamina propria directed toward the systemic circulation before reaching the brain or cerebrospinal fluid (CSF).

Row | Substance | distribution in the trigeminal nerves [1] | distribution ratio (olfactory bulb/trigeminal nerves) [1] | delivery to the brain by intranasal coadministration with L-penetratin [2]
1 | Cy7-insulin: insulin labeled with the Cy7 fluorescent dye via Cy7 Mono NHS Ester | high even without L-penetratin | dominantly increased | 
2 | Cy7-Exendin-4: Exendin-4 labeled with the Cy7 fluorescent dye via Cy7 Mono NHS Ester | high even without L-penetratin | dominantly increased | 
3 | leptin |  |  | significantly increased
